According to patent US20040256230A1, “Microfluidic devices for transverse electrophoresis and isoelectric focusing” (University of Washington, priority 1999, published 2004):
Where “and” joins values, the source holds several entries; their conditions need not be identical. Equal values may be shown once.

How the values were obtained:
[1] = stated, literature or standard value; cited from earlier work
[2] = Isoelectric focusing in the microchannel (microfluidic IEF), position of the focused zone; assay type: physicochemical; conditions: 0.1 mM histidine buffer, initial pH 7.1, 2.5V for 6 minutes
Experimental: Bovine hemoglobin (Hb) was selected as a test case because of its strong absorbance at 550 nm (facilitating observation without need for additional dyes). The pI of Hb is 7.1, as verified by polyacrylamide gel isoelectric focusing run at the same concentration as was used for IEF in the microchannel. […] A voltage of 2.5V (resulting in a current of 5 μA) was applied for 6 minutes. Two zones of higher optical density close to the electrodes were formed within 15 s. They moved towards each other meeting to form one dark zone after 5 minutes. Even with a relatively high concentration of Hb (1.55×10^−4 M), the darker zones and their migration were barely visible in color images. Normalized plots of green pixel values vs. position allowed monitoring of Hb migration. The position of the final focused zone of Hb in the microchannel corresponded to a pH of 7.1±0.3 on the basis of previous results with acid-base indicators under similar conditions (FIG. 8). The pI value determined by IEF in the microchannel was within experimental error, identical to that in the literature and that determined by our gel IEF experiment.

[3] = Isoelectric point by polyacrylamide gel isoelectric focusing, compared with positions of standards; assay type: physicochemical; conditions: constant voltage, mini IEF cell
Experimental: The isoelectric points (pI) of proteins were determined experimentally by polyacrylamide gel isoelectric focusing, using the procedure specified by BiORad Laboratories, Inc. (Hercules, Calif.). A mini IEF cell (Model 111) purchased from BiORad equipped by two graphite electrodes was employed for this purpose. Focusing was carried out under constant voltage conditions (Power Pac 1000, BiORad).
(§1) Isoelectric points of proteins were determined by comparison with positions of standards.

[4] = Stability of the fluorescence of the BSA conjugate over a broad range of pH values; assay type: physicochemical; conditions: pH 2.5 to 10.0, 1.52 μM, excitation 495 nm, every 30 minutes for 4.5 hours
Experimental: as §1
The fluorescence of the BSA-Bodipy FL conjugate is reported to be insensitive to pH between 4 and 8. […] A fluorescence spectrum from 500-550 nm for an excitation wavelength of 495.0±2.5 nm was recorded for each of the solutions immediately after its preparation and then after each 30 minutes for 4.5 hours.

Molecule	isoelectric point (pI) [1]	pH corresponding to the position of the final focused zone in the microchannel [2]	pI determined by polyacrylamide gel isoelectric focusing [3]	change of fluorescence over time [4]
N[C@@H](Cc1c[nH]cn1)C(=O)O [histidine]	7.4			
Bovine hemoglobin: bovine hemoglobin (Sigma), test analyte for isoelectric focusing	7.1	7.1±0.3	7.1	
BSA conjugate: fluorescent bovine serum albumin (BSA)—Bodipy FL conjugate (Molecular Probes)			4.6±0.1 and 4.65	did not significantly change
phycocyanin	4.65			
human hemoglobin A: pI standard in gel isoelectric focusing	7.1			
